Assay: yeast display, Sf9 membrane polyspecificity reagent, FACS + sequencing; frameworks hold sequencing errors
How it was run: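 Galactose-induced (36–48 hours) yeast carrying a synthetic nanobody display library were exposed to 10% biotinylated, detergent-solubilized Sf9 membrane reagent at 4 °C for 1 hour. FACS followed streptavidin microbead enrichment, using low and high (top ~1%) gates for expression (anti-HA) and reagent binding (streptavidin). Colony PCR, MiSeq 2 × 250 sequencing and CDR-length filtering followed. Labels for polyreactivity reflect the gate of origin.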

Row | Sequence | polyreactivity (PSR sort gate)
1 | QVQLVESGGGLVQAGGSLRLSCAASGRTFRYNAMGWYRQAPGKERELVAAINWNGGSTYYADSVKGRFTISRDNAKNTVYLQMNSLKPEDTAVYYCAAYPGHGVTYWDRYYYWGQGTQVTVSS | high polyreactivity
2 | QVQLVESGGGLVQAGGSLRLSCAASGSIFAPNAMGWYRHAPGKERELVAAISRSGGRTYYADSVKGRFTISRDNAKNTVYLQMNSLKPEDTAVYYCAADYKHQRTYGSWGQGTQVTVSS | high polyreactivity
3 | QVQLVESGGALVQAGGSLRLSCAASGRIFGVNAMGWYRQAPGKERELVAAITSRGGSTYYADSVKGRFTISRDNAKNTVYLQMHSLTPEDTEVYYCRGWRYFTDKTYDYWGQGTQVTVSS | high polyreactivity
4 | QVQLVESGGGLVQAGGSLRLSCAASGSIFAYNAMGWYRQAPGKEREFVAAISLSGGRTYYADSVKGRFTISRDNAKNTVYLQMNSLKPEDTAVYYCATDGIRLTRHRDYDYWGQGTQVTVSS | low polyreactivity
5 | QDQLVDSGGGLDQAGGSLRLSCAATGRTIGINAMGWYRQAPGKERELVAVISFGDGGTYSADSVKGRFTISRDNAKNTVYLQMNSLKPEDTAVYYCATDYQSTSVWGGHFVINPFDYWGQGTQVTVSS | low polyreactivity
6 | QVQLVESGGGLVQAGGSLRLSCAASGFIFYGYAMGWYRQAPGKERELVAGISTGGSTNYADSVKGRITISRDNAKNTVYLQMNSLKPEDTAVYYCAVVDVEEHVGHWGQGTQVTVSS | low polyreactivity
7 | QVQLVESGGRLVQAGGSLLLSCAASGIIFYDYAMGWYRRAPGKERQLVAAITSGGSTNYADSVKGRFTISRDNAKNTVYLQMNSLKPEDTAVYYCAATYWSWISLRWYEYYYWGEGTQVTVSS | low polyreactivity
8 | QVQLVESGGGLVQAGGSLRLSCAASGIIFYRYTMGWYRQAPGKERELVAAITSGGDTNYADSVKGRFTISRDNAKNTVYLQMNSLKPEDTAVYYCNADCWWYLYLYDFWGQGTQVTVSS | high polyreactivity
9 | QVQLVESGGGLVQAGGSLRLSCAASGSTFDYYTMGWYRQAPGKERELVAAINSSGGRTYYADSVKGRFTISRDNAKNTDYLQMNSLKPEVTAVYYCARTRSVYGYDYWGQGTQVTVSS | high polyreactivity
10 | QVQLVESGGGLVQAGGSLRLSCAASGFIFGYYAMGWYRHAPGKERELVAAISYSGGSTYYADSVKGRFTISRDNAKNTVYLQMYSLKPEDTAVYYCAKYGQSNYDWGQGTQVTLSS | high polyreactivity
11 | QVQLVQSGGCLVQAGGSLRLSCAASGSTIGDNAMGWYRQAPGKERELDAAIDYSGGSTRYADSVKGRFTISRDNAKNTVYLQMNSLKPEDTAVYYCAADYASGSRLFPKTLDYWGQGTQVTVSS | low polyreactivity
12 | QVQLVESGGGLVQAGGSLRLSWAASGYTFGKNAMGWYRQAPGKERELVAAISRSGGSTFYADSVKGRFTISRDNAKNTVYLQMNSLKPEDTAVYYCAAESYGYSAPYDYWGQGTQVTVSS | high polyreactivity
13 | QVQLVESGGGLVQAGGSLSLSCAASGSTYFYAMGWYRQAPGKERELVAAISFSDGITYYADSVKGRFTISRDNAKNTVYLQMNSLKPEDTAVYYCAADYISLREEDYWGQGTQVTVSS | high polyreactivity
14 | QLQLVESGGALVQAGGSLRLSCAASGSTFTVNGMGWYRQAPGKERELVAAIDGGDGSTYYADSVKGRFTISRDNAKNTVYLQMNSLKPEDTAVYYCAADPPGFTQYGYWGQGTKVTVSS | low polyreactivity
15 | QVQLVESGGGLVQAGGSLRLSCAASGRIFKIYSMGWYRQAPGKERELVAAISYRGTSTYYADSVKGRFTISRDNAKNTVYLQMNSLKPEDTAVYYCARRDTYTRYYWGQGTQVTVSS | high polyreactivity
16 | QVQLVESGGGLVQAGGSLRLSCAASGFIFGTYVMGWYRQAPGKERELVAAISESGGRTYYADSVKGRFTISRDNAKNTVYLQMNSLKPEDTAVYYCAKVRHIRFHYYYGYQSYYYWGQGTQVTVSS | high polyreactivity
17 | QVQLVESGGGLVQAGGSLRLSCAASGFTIRWYAMGWYRQAPGKERELVAAISSGGGSTYYADSVKGRFTISRDNAKNTVYLQMNSLKPEDTAVYYCNARIQYFEYRGYEYWGQGTQVTVSS | high polyreactivity
18 | QVQLVESGGGLVQAGGSLRLSCAASGRIFQYNAMGWYRQAPGKEREFVAAIRRGGGSTYYADSVKGRFTISRDNAKNTVYLQMNSLKPEDTAVYYCAARRKRVSFYPEYDYWGQGTQVTVSS | low polyreactivity
19 | QVQLVESCGGLVQAGGSLRLSCAASGSTFEEYAMGWYRQAPGKERELVASIRWSGGRTYYADSVKGRFTISRDNAKNTVYLQMNRLKPEDTAVYYCNKDYYITLHESEGKGGEMDYWGQGTQVTVSS | low polyreactivity
20 | QVQLVESGGGLVQAGGSLRLSCAASGRIFRSNAMGWYRQAPGKERELVAAISSNGGSTYYADSVKGRFTISRDNAKNPVYLQMNSLKPEDTAVYYCAARVYYPVRYGYWGQGTQVTVSS | high polyreactivity
21 | QVQLVESGGGLVQAGGSLRLSSAASGSIFIPYAMGWYRQAPGKERELVAAISSSGSTYYADSVKGRFTISRDNAKNTVYFQMNSLKPEDTAVYYCAAAWHTAYWDGSDTLGGGYWGQGTQVTVSS | low polyreactivity
22 | QVQLVESCGGLVQAGGSLRLSCAASGSTFAGYVMGWYRQAPGKERQFVAAISTSGGRTYYADSVKGRFTISRDNAKNTVYLQMNSLKPEDTAVYYCAARSVTYGGLGLYGYWGQGTQVTVSS | high polyreactivity

Row | Sequence | polyreactivity (PSR sort gate)
23 | QVQLVESGGGLVQAGGSLRLSCAASGSILTENAMGWYRQAPGKERELVAAISRSGGRTYYADSVKGRFTISRDNAKNTVYLQMNSLKPEDTAVYYCAAEYWTVGYYYSLESDYWGQGTQVTVSS | low polyreactivity
24 | QVQLVESGGGLVQAGGSLRLSCAASGSTFSSYAMGWYRQAPGKERELVAAISYSGGSTYYADSVKGRFTISRDNAKNTVYLQMNSLKPEDTAVYYCAAVGTWQHRSYGYWGQGTQVTVSS | high polyreactivity
25 | QVQLVESGGGLVQAGGSLRISCAASGSIFGSYTMGWYRQAPGKERELVAVINWSGDRTYYADSVKGRFTISRDNAKNTVYLQMNSLKPEDTAVYYCAARERAGYSRIRYNYWGQGTQVTVSS | low polyreactivity
26 | QVQLVESGGGLVQAGGNLRLSCAASGFIFTRNAMGWYRQAPGKERELVAAISTSGDRTYYADSVKGRFTISRDNAKNTVYLQMNSLKPEDTAVYYCAVVRPRYVVRYDYWGQGTQVNVSS | high polyreactivity
27 | QVQLVESGGGLVQAGGSLRLSCAASGRIFRFYAMGWYRQAPGKERELVAAITYGGGTTYYADSVKGRFTISRDNAKNTVYLQMNSLKPEDTAVYYCAADHRQGYDHEYDYWGQGTQVTVSS | low polyreactivity
28 | QVHLVESGGGLVQAGGSLRLSCAASGSTFYYYVMGWYRQAPGKETELVAAINSGGSTYYADSVKGRFTISRDNAKNTVYLQMNSLKPEDTAVYYCAKSWSYWYQYYYSGQGTQVTVSS | low polyreactivity
29 | QVQLVESGGGLVQAGGSLRLSCAASGSNFVGNAMGWYRQAPGKERELFAAISSGGSTYYADSVKGRFTISRDNAKNTVYLQLNSLKPEDTAVYYCAAYYVRRYSSRPKDDYWGQGTQVTVSS | low polyreactivity
30 | QVQLVESGGGLVQAGGSLRLSCAASGSTLVLNAMGWYRQAPGKERELVAAITISGDTTYYADSVKGRFTISRDNAKNTVYLQMNSLKPEDTAVYYCAAVVSTVDGMEYWGQGTQVTVSS | low polyreactivity
31 | QVQLVESGGGLVQAGGSLRLSCAASGFIFWYYGMGWYRQAPGKERELVAAINWSGTSTNYADSVKGRFTISRDNAKNTVYLQMNSLKPEDTAVYYCAAEYWYTYSWGQGTQVTVLS | low polyreactivity
32 | QVQLVESGGGLVQAGGSLRLSCPASVSIFYTYAMGLYRQAPGKEREFFASNTYRGSNTYYADSVKGRFTISRDNAKNTVYLQMNSLKPEDTAVYYCAAERYLYYPPYIYETSYVYWGQGSQVTVSS | low polyreactivity
33 | QVQLVESGGGLVQAGGSLRLSCAASGFTFPNYAMGWSRQAPGKERELVAAITSGGGRTNYSDSVKGRFTISRDTAKNTVYLQMNSLKPEDTAVYYCAAEYRYDYRVYSHLHVWRYDYWGQGTQVTVSS | low polyreactivity
34 | QVQHVVSVGGLVQAGGSLRLSCAASGSTFLLNTMGWYRQAPGKERELVAAISSITGDTYYADSVKGRFTISRDNAKNTVYLQMNSLKPEDTAVYYCAAYLSETRPYLYDYWGLGTQVTVSS | low polyreactivity
35 | QVQLVESGGGLVQAGGSLRLSCAASGNAMGWYRQAPGKERDLVAAITRRGGSTYYADSVKGRFTISRDNAKNTVYLQMNSLKPEDTAVYYCAADNPSYNLWYGYWGQGTQVTVSS | low polyreactivity
36 | QVQHVESGGGLLQAGGSLRLSCAASVSTLSKNAMGWYRQAPGKERELVAAITRRGGSTSYADSVKGRFTISRDNAKNTVYFQMNSLKPEDTAVYYCNAVSKYDYGYWGQGTQVTVSS | high polyreactivity
37 | QVQLLESGGGLVQAGGSLRLSCAASVSTFLYYTMGWYRQATGKQRELVAAISDDGSTSYADSVKGRFTISRDNAKITVYLQMNSLKPEDTAVYYCAARFYHNRYTFYDFYTLYPYYYWGQGTQVTVSS | low polyreactivity
38 | QVQLVESGGGLVQAGASLRLSCAPSGLIFTYNARGWYRQAPGKERELVAAITYRVSSTYYADSVKGRFTISRDNAKNSVYLQMNSLKPEDTAVYYCAAPRLIRFVTYYSWGLGTQVTVSS | high polyreactivity
39 | QVQLVESGGGLVQAGGSLRLSCAASGSIFDRYAMGWYRQAPGKERELVAAISTGGSTNYADSVKGRFTISRDNAKNSVYLQMNSLKPEDTAVYYCAARYLYRMYYWGQGTQVTVSS | low polyreactivity
40 | QVQLVESGGGLVQAGGSLRLSCAASGSTFGFYAMGWYRQAPGKERELVAAITSGDITYADSVKGRFTISRDNAKNTVYLQMNSLKPEDTAVYYCAASGPYSYDWGQGTQVTVSS | low polyreactivity
41 | QVQLVESGGGLVQAGGSLRLSCAASGSTFVPNTMGWYRQAPGKERELVADITYSGGSTYYADSVKGRFTISRDNAKNTVYLQMNSLKPEDTAVYYCAAEGTTWYYDMDYWGQGTQVTVSS | low polyreactivity
42 | QVQLVESGGGLVQAGGSLRLSCAASGRILGRNAMGRYRQAPGKEREFVAGISYSGTSTYYADSVKGRFTISRDNAKNTVYLQMNSLKPEDTAVYYCAARSTWFQIRYGYWGQGTQVTVSS | high polyreactivity
43 | QVQLVESGGGLVQAGGRLRLSCAASGRIFIKNAMGWYRQAPGKESELVAAISDSGDSTYYAVSVKGRFTISRDNAKNTVYLQMNSLKPEDTAVYYCAADGADHRSEMYYWGQGTQVTVSS | low polyreactivity

— the nanobody polyreactivity screen of Harvey et al. (2022)
